Source: US20210171613A1 (NATIONAL RESEARCH COUNCIL OF CANADA, published 2021)
Where a chain is given by its changes, count along the chain named. Numbers in names are those of the source.

B1: A26.8 VHH mutant Q106F (VHH, not shown: small tags and cut ends)
VHH: QVKLEESGGGLVQAGGSLRLSCAASERTFSRYPVAWFRQAPGAEREFVAVISSTGTSTYYADSVKGRFTISRDNAKVTVYLQMNNLKREDTAVYFCAVNSQRTRLFDPNEYDYWGQGTQVTVSS
B2: A26.8 VHH mutant Q106L (VHH, not shown: small tags and cut ends)
VHH: B1 VHH with F106L
B3: A26.8 VHH mutant S53R (VHH, not shown: small tags and cut ends)
VHH: B1 VHH with S53R, F106Q
B4: A26.8 VHH mutant Q106Y (VHH, not shown: small tags and cut ends)
VHH: B1 VHH with F106Y
B5: A26.8 VHH mutant Q106W (VHH, not shown: small tags and cut ends)
VHH: B1 VHH with F106W

What follows are binders tested against T1, Clostridium difficile toxin A (TcdA) (Clostridium difficile, UniProt P16154 1-2710) (assay: SPR on immobilized TcdA).
T1 construct: mature; also called full-length TcdA
T1 sequence (P16154 whole entry): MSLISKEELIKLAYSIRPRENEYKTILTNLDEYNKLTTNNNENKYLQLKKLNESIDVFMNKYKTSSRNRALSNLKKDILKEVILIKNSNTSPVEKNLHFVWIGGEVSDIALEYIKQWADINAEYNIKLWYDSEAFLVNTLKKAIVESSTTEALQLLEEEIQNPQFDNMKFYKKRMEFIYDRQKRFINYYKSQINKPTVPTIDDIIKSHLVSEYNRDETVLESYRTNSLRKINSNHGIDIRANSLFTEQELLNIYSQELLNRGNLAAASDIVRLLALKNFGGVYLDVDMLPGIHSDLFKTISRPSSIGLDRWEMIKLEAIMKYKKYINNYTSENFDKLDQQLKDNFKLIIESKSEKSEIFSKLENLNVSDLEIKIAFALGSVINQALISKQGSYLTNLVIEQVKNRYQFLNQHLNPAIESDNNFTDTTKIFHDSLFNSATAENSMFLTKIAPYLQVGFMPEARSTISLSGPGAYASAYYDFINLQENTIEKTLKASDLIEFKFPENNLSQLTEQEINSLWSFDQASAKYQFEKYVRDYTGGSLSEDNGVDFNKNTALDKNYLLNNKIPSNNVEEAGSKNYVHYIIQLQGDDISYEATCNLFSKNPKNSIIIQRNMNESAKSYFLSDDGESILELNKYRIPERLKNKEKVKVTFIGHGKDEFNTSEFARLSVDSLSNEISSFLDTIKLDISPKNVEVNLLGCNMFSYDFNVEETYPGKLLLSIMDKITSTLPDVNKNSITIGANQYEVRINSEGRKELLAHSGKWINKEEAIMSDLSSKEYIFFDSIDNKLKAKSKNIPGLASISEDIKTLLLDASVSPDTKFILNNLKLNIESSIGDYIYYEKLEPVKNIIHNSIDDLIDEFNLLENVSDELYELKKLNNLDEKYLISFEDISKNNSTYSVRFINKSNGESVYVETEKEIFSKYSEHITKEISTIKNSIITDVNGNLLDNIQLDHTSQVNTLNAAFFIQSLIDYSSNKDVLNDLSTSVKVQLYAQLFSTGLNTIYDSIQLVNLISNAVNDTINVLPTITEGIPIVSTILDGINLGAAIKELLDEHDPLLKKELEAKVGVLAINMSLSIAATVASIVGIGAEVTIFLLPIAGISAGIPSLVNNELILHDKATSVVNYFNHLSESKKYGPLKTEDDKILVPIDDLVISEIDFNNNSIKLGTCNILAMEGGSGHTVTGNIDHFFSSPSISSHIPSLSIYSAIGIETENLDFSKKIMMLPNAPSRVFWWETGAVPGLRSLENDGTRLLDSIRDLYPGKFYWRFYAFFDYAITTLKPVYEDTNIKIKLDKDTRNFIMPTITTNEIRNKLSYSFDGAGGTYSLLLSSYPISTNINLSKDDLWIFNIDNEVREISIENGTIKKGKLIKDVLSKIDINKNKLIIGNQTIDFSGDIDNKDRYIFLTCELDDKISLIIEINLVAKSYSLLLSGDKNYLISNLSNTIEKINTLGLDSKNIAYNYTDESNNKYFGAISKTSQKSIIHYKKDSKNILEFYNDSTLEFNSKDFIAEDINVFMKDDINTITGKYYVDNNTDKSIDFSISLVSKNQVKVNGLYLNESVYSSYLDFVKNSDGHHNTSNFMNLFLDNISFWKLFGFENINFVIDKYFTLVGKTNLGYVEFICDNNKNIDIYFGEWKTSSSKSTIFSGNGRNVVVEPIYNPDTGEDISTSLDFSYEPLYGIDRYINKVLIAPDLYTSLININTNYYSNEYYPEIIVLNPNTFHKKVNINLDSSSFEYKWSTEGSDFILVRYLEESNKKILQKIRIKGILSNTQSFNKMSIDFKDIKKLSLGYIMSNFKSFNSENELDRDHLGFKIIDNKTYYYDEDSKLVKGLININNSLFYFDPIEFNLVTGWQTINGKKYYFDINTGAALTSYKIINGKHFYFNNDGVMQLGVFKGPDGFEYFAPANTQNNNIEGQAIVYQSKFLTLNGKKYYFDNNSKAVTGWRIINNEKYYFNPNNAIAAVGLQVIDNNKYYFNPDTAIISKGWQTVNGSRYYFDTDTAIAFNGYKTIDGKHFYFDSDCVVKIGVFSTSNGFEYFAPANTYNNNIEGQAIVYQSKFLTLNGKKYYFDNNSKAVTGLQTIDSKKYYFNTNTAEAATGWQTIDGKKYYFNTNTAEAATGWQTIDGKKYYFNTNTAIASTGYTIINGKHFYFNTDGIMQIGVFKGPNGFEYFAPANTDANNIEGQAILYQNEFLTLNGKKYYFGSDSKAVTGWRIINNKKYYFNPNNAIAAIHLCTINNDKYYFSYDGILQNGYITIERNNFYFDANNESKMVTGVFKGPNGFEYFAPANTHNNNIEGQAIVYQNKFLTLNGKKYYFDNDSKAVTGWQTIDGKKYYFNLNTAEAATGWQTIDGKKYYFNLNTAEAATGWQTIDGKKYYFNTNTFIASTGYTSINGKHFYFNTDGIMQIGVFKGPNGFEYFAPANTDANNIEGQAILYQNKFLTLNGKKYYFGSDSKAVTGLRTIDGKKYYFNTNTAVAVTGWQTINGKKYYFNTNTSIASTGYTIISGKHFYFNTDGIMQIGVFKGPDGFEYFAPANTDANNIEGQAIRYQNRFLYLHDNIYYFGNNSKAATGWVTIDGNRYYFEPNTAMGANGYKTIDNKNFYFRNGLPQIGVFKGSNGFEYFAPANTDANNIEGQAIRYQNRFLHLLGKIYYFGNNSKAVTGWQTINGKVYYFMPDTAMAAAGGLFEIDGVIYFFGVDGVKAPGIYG
Method: (§1) Before surface plasmon resonance (SPR) binding experiments, IMAC-purified VHHs were subjected to de-salting and further purification by size-exclusion chromatography (SEC). Approximately 500 μg of each VHH was injected over a Superdex 75 Increase 10/300 GL SEC column (GE Healthcare) in Biacore running buffer HBS-EP (10 mM HEPES pH 7.4, 150 mM NaCl, 3 mM EDTA, 0.005% (v/v) P20; GE Healthcare) under the control of an ÄKTA FPLC at 0.8 mL/min. Monomeric VHH fractions were collected and analyzed for binding to TcdA using a Biacore 3000 SPR instrument (GE Healthcare). Approximately 4,500 resonance units (RUs) of TcdA (List Biological Laboratories, Campbell, Calif.) were immobilized on a CM5 sensor chip (GE Healthcare) using the conditions previously described (Hussack et al, 2011). HBS-EP running buffer was used for all binding studies and regeneration of TcdA surfaces. Next, various dilution ranges of VHHs (as low as 10 nM-0.5 nM to as high as 5 μM-50 nM) were injected over immobilized TcdA at a flow rate of 40 μL/min with 120 s contact time and 600 s dissociation. Reference-subtracted sensorgrams were analyzed with BIAevaluation software (GE Healthcare) and fit to a 1:1 binding model. In cases where rapid kₒₙ and koff rate constants were observed, equilibrium dissociation constants (KDs) were determined by steady-state analysis.
The location of these mutations relative to the antigen epitope is illustrated in FIG. 2C.
B1 was tested, and the “fold decrease in affinity relative to parent A26.8 VHH” value was 30 to 300 fold.
B2 was tested, and the “fold decrease in affinity relative to parent A26.8 VHH” value was 30 to 300 fold.
B3 was tested, and the “fold decrease in affinity relative to parent A26.8 VHH” value was roughly 10 fold.

These binders were tested against T1, Clostridium difficile toxin A (TcdA) (assay: SPR (Biacore 3000), VHH over immobilized TcdA, steady-state analysis).
Method: as §1
B1 was tested, and the Kd was 5130 nM.
Binder B4 has a Kd of 2320 nM.
Binder B2 has a Kd of 612 nM.
With B5 the Kd was 1480 nM.
Binder B3 has a Kd of 224 nM.

What follows are binders tested against T1, Clostridium difficile toxin A (TcdA) (assay: SPR (Biacore 3000), VHH over immobilized TcdA; ratio of parent KD to mutant KD).
Method: as §1
In the case of B1, the “KD^WT/KD” value is reported as 0.004.
For B4, the “KD^WT/KD” value was 0.008.
For B2, the “KD^WT/KD” value was 0.03.
In the case of B5, the “KD^WT/KD” value is reported as 0.01.
For B3, the “KD^WT/KD” value was 0.08.

What follows are binders tested against T1, Clostridium difficile toxin A (TcdA) (assay: SPR (Biacore 3000), VHH over immobilized TcdA; binding free energy difference relative to parent VHH).
Method: as §1
B1 gave a ΔΔG of 3.28 kcal/mol.
Binder B4 has a ΔΔG of 2.82 kcal/mol.
B2 showed a ΔΔG of 2.04 kcal/mol.
Work on B5 yielded a ΔΔG of 2.55 kcal/mol.
B3 showed a ΔΔG of 1.45 kcal/mol.
